Assays:
[1] = biological target: T1, β1 adrenergic receptor (β1AR) (Homo sapiens, UniProt P08588); test: Confocal trafficking and colocalization with β1AR; format: cell-based; conditions: HEK-293 cells with stable β1AR expression
T1 construct: expressed in transfected cells
Description: (§1) Immunostaining and confocal microscopy. […] Twenty-four hours post-transfection, cells were serum-starved for 4 h, and either left untreated or treated with respective agonists for the indicated times in the Figure descriptions. After stimulation, cells were fixed with 5% formaldehyde diluted in phosphate-buffered saline (PBS), permeabilized with 0.1% Triton in PBS containing 2% bovine serum albumin for 20 min and incubated at room temperature with appropriate primary antibody. The next day, cells were washed three times with PBS and incubated with Alexa594 conjugated secondary antibody for 1 h, followed by repeated washes using PBS. Confocal images were acquired using Zeiss LSM510 laser-scanning microscope using multitrack sequential with excitation (488 and 568 nm) and emission (BP 505-550 nm and LP 585 nm) filter sets. Images (1024×1024 pixels) were collected using either a 63× or 100× oil immersion lens. Images were processed for Figure presentation using Adobe Photoshop software, and any increase or decrease of brightness/contrast was applied to the entire image. The nuclear rim localization of YFP-βarrestin2-SUMO1 is readily visualized in cells with low to moderate expression of YFP-protein. In cells with high expression, this localization is present, and can be discerned by enlarging sections of the nuclear rim.

D2R = biological target: T2, D2R (Homo sapiens, UniProt P14416); test: Confocal trafficking and colocalization with D2R; format: cell-based; conditions: HEK-293 cells stably expressing D2R
T2 construct: HA (N); expressed in transfected cells
Description: as §1, with “rim. […]” for “rim.”

[2] = biological target: T3, D2 dopamine receptor (D2R) (Homo sapiens, UniProt P14416); test: BRET dose-response assay of βarrestin2 construct recruitment to D2R-RlucII; format: cell-based; conditions: D2R-RlucII with YFP constructs; dopamine 15 min; compared with YFP-βarrestin2
T3 construct: expressed in transfected cells
Description: HEK-293 cells were transiently transfected with D2R-RlucII along with YFP-βarr2-WT, YFP-βarr2-SUMO1 or YFP-βarr2-Ub and incubated with the indicated concentrations of dopamine for 15 min. BRET signals were measured as described in Example 1 herein, and changes following agonist treatment are expressed as a percentage of the BRET signal observed in unstimulated cells (top panel). […] The histogram (bottom panel) represents Bmax values of agonist induced BRET as means±SEM of 4 independent experiments performed in duplicates. Significance of changes in energy transfer was established by one-way ANOVA comparing signals measured for the recruitment of βarr2 fusion proteins to D2R-RlucII *p<0.01; **p<0.001.
BRET assays. […] BRET readings were acquired using Synergy Neo2 plate reader and obtained 5 min after manual addition of Rluc substrate, coelenterazine h (Promega) to a final concentration of 5 μM.
The BRET signal generated was determined by calculating the ratio of light emitted by YFP (520-550 nm) over the light emitted by Rluc (440-480 nm). These values were then corrected by subtracting the background signal (detected when the Rluc-tagged construct was expressed without acceptor) from the BRET signal detected in cells co-expressing both donor and acceptor constructs. […]

HEK-293 cells = test: Confocal microscopy of subcellular distribution of YFP-tagged proteins; format: cell-based, Human; conditions: 85 cells (mYFP-βarrestin2-SUMO1) and 80 cells (mYFP-SUMO1) observed
Description: as §1, with “Images (1024×1024 pixels) were collected using either a 63× or 100× oil immersion lens. Images were processed for Figure presentation using Adobe Photoshop software, and any increase or decrease of brightness/contrast was applied to the entire image.” left out, “In cells with high expression, this localization is present, and can be discerned by enlarging sections of the nuclear rim.” left out
To circumvent this issue, a YFP tagged βarrestin2-SUMO1 fusion protein was generated, which would be resistant to the enzymatic activity of SENP1. YFP-βarrestin2-SUMO1 expressed in the cytoplasm akin to YFP-βarrestin2; but was also detected at the nuclear membrane (data not shown). […] While YFP-SUMO1 was concentrated in the nucleus, and nucleoli, very little βarrestin2-SUMO1 was detected in the nucleus or nucleolus. […]

T2 sequence (P14416 whole entry): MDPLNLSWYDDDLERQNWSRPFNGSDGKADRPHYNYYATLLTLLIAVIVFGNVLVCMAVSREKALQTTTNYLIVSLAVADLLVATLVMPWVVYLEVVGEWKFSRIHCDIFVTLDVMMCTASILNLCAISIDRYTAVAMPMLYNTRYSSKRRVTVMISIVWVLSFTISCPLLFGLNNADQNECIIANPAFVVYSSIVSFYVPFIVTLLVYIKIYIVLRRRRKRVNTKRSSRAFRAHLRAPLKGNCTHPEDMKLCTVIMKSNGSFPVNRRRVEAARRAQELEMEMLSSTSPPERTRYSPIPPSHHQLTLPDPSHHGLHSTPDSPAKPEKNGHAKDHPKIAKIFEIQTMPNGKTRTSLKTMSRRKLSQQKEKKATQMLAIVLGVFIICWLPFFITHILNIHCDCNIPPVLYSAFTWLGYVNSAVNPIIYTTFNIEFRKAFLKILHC
T3 sequence (P14416 whole entry): as above
T1 sequence (P08588 whole entry, species assumed): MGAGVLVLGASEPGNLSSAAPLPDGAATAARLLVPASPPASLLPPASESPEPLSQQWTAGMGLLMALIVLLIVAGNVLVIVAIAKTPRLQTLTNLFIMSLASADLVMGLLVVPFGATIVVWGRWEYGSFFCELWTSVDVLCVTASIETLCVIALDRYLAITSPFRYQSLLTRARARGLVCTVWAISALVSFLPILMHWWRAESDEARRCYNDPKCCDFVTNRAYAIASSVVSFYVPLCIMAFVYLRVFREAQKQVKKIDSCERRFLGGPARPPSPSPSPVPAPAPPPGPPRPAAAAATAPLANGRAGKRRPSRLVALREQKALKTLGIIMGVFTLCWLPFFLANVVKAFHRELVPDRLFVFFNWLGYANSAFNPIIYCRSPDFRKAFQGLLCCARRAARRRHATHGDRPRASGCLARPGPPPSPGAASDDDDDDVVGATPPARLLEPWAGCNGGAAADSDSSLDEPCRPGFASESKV

## βarrestin2-SUMO1: rat βarrestin2 polypeptide fused to human SUMO1 (SEQ ID NO:1); used YFP- or Flag-tagged
[1]
  association with β1AR after isoproterenol activation (confocal): strongly and stably
D2R
  stability of association with activated D2R (confocal): associate stably
[2]
  agonist-mediated increase in energy transfer (net BRET) with D2R: greater
HEK-293 cells
  localization of YFP fluorescence at the nuclear membrane: all cells
